Test results: US20240343799A1 (Innovent, published 2024)

T1: CD79b on the surface of B-cell non-Hodgkin's lymphoma cells (human, UniProt P40259 29-229)
T1 construct: whole, on cells; Endogenous CD79b of the cell lines; on cells it stands in the B cell receptor complex with CD79a; also called CD79b on Ramos cells; CD79b on BJAB cells
T1 sequence (looked up): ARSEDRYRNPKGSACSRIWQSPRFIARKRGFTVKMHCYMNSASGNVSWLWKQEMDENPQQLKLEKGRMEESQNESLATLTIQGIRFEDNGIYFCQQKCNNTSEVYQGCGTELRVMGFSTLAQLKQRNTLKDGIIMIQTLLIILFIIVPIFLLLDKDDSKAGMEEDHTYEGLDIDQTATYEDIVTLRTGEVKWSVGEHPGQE

T2: human CD79b-his (Sino biological) (human, UniProt P40259 29-159)
T2 construct: Amine-coupled to the Biacore chip (about 50 RU); not shown: His tag
T2 sequence (looked up): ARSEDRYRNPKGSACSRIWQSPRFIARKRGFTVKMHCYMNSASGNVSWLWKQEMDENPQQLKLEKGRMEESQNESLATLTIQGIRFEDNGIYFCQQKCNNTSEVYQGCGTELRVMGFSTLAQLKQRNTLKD

T3: monkey CD3E & CD3G-biotin (Sino biological) (cynomolgus monkey, UniProt Q95LI5 22-117; Q95LI7 23-113, limits assumed)
T3 construct: also called Cyno CD3E&G; monkey CD3E&G
T3 sequence (looked up) 1: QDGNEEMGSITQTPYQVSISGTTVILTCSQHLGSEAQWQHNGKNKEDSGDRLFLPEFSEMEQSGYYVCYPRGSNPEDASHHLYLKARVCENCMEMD
T3 sequence (looked up) 2: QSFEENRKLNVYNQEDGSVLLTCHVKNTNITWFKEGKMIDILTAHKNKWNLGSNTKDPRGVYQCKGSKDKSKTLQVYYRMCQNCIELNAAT


Tests used:
[1] = molecular target: T1, CD79b on the surface of B-cell …; experiment: flow cytometry on BJAB cells, goat anti-human IgG PE
Protocol: (§1) The binding ability of the CD79b/CD3 bispecific antibodies for CD79b-positive B-cell non-Hodgkin's lymphoma cell lines was detected by flow cytometry.
(§2) BJAB (AddexBio, USA, Cat #C0003016) and WSU-DLCL2 (Nanjing Kebai Biotechnology Co., Ltd., Cat #CBP60273) were cultured and passaged according to the conventional procedures. Cells were counted after centrifugation and resuspension, adjusted to a density of 4×10⁶ cells/mL, poured into a loading tank, and seeded to a 96-well plate at 50 μL/well using a multichannel pipettor. 50 μL of the antibody sample diluted in gradient was added to the 50 μL of cells in each well, and the mixture was then incubated in an incubator at 5% CO₂ and 37° C. for 30 min. The mixture was centrifuged at 400 g for 5 min, then 200 μL of PBS was added, and the resulting mixture was centrifuged at 400 g for 5 min. This procedure was repeated 3 times. Goat anti-human IgG PE (1:200) was added, and the mixture was incubated for 30 min in the dark at room temperature. The mixture was washed with 200 μL of PBS twice, centrifuged, and then resuspended in 100 μL of PBS, and the values were read using a flow cytometer. The values were fitted to obtain a curve and EC₅₀ values were calculated.

[2] = molecular target: T1, CD79b on the surface of B-cell …; experiment: flow cytometry on WSU-DLCL2 cells, goat anti-human IgG PE
Protocol: as §1, §2

[3] = molecular target: T2, human CD79b-his (Sino biological); experiment: SPR (Biacore T200), CD79b-His coupled to chip, antibody injected
Protocol: (§3) The binding kinetics of exemplary anti-CD79b/CD3 antibodies of the present invention for human CD79b, human CD3, and cynomolgus monkey CD3 were determined using surface plasmon resonance (Biacore T200). (1) Affinity assay of antibodies for human CD79b-his (Sino biological): 50 mM N-hydroxysuccinimide (NHS) and 200 mM 1-ethyl-3-(3-dimethylaminopropyl) carbodiimide hydrochloride (EDC) were freshly mixed and activated for 420 s at a flow rate of 10 μL/min. Human CD79b-His antigen was then diluted in 10 mM Acetate (pH 5.0), and after dilution to a concentration of 1 μg/mL, the antigen solution was subjected to coupling and the value was approximately 50 RU. Then 1 M ethanolamine was injected at a flow rate of 10 μL/min for 420 s to block the remaining activation sites. The buffer used in the experiment was HBS-EP+ solution at pH 7.4, and under a high performance mode, the antibodies obtained after 2-fold gradient dilution (0-80 nM) were each injected, according to an ascending order based on concentrations, into the channels 1, 2, 3 and 4 of the chip at a flow rate of 30 μL/min, wherein one cycle was used for determination of one concentration, the binding time was 180 s, and the dissociation time was 600 s. (2) Affinity assay of antibodies for human CD3E & CD3G-biotin (Sino biological) and monkey CD3E & CD3G-biotin (Sino biological): 50 mM NHS and 200 mM EDC were freshly mixed and activated for 420 s at a flow rate of 10 μL/min. Streptavidin (Thermo Fisher scientific) protein was then diluted in 10 mM Acetate (pH 4.5) and after dilution to a concentration of 10 μg/mL, the antigen solution was subjected to coupling and the value was approximately 3000 RU. Then 1 M ethanolamine was injected at a flow rate of 10 μL/min for 420 s to block the remaining activation sites. Human CD3E & CD3G-biotin and monkey CD3E & CD3G-biotin proteins were each immobilized on the chip channels coupled with Streptavidin protein. The antibodies (0-16 nM or 0-40 nM or 0-200 nM) obtained after 2-fold gradient dilution were each injected, according to an ascending order based on concentrations, into the channels 1, 2, 3 and 4 of the chip at a flow rate of 30 μL/min, wherein one cycle was used for determination of one concentration, the binding time was 180 s, and the dissociation time was 300 s.

[4] = molecular target: T4, human CD3E & CD3G-biotin (Sino biological) (human, UniProt P07766 23-126; P09693 23-116, limits assumed); experiment: SPR (Biacore T200), biotinylated CD3E&CD3G on streptavidin chip, antibody injected
T4 construct: also called Human CD3E&G
Protocol: as §3

[5] = molecular target: T3, monkey CD3E & CD3G-biotin (Sino …); experiment: SPR (Biacore T200), biotinylated monkey CD3E&CD3G on streptavidin chip, antibody injected
Protocol: as §3

T4 sequence (P07766 23-126 limits assumed, chain 1 of 2): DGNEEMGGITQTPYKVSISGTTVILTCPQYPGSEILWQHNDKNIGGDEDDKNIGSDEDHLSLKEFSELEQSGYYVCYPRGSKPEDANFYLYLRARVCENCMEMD
T4 sequence (P09693 23-116 limits assumed, chain 2 of 2): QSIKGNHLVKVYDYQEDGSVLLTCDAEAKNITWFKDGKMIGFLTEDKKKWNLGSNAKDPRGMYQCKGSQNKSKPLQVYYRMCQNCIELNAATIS

Row | EC50 (read off the curve) [1] | EC50 (read off the curve) [2] | Kd [3] | koff [3] | kon [3] | Kd [4] | koff [4] | kon [4] | Kd [5] | koff [5] | kon [5] | Binder
1 | ~5 nM | ~10 nM | 0.787 nM | 0.000268 s⁻¹ | 341000 M⁻¹ s⁻¹ | 6.19 nM | 0.00565 s⁻¹ | 912000 M⁻¹ s⁻¹ | 10.9 nM | 0.00656 s⁻¹ | 603000 M⁻¹ s⁻¹ | 38D9B3.11/sp34.24 (bispecific antibody, human IgG1, kappa, lambda, L234A L235A, also called 38D9B3.11 x HzSP34.24) heavy 1: not shown light 1: EIVLTQSPATLSLSPGERATLSCKASQSVDHDVDSYMDWYQQKPGQAPRLLIYSASNLESGIPARFSGSGSGTDFTLTISSLEPEDFAVYYCQQINEYPYTFGGGTKVEIKRTVAAPSVFIFPPSDEQLKSGTASVVCLLNNFYPREAKVQWKVDNALQSGNSQESVTEQDSKDSTYSLSSTLTLSKADYEKHKVYACEVTHQGLSSPVTKSFNRGEC heavy 2: not shown light 2: QAVVTQEPSLTVSPGGTVTLTCRSSTGAVTTSNYANWVQQKPGQAPRGLIGGTNKRAPGVPARFSGSLLGDKAALTLLGAQPEDEAEYYCALWYSNLWVFGQGTKLTVLGQPKAAPSVTLFPPSSEELQANKATLVCLISDFYPGAVTVAWKADSSPVKAGVETTTPSKQSNNKYAASSYLSLTPEQWKSHRSYSCQVTHEGSTVEKTVAPTECS
2 | ~60 nM | – | 3.1 nM | 0.00161 s⁻¹ | 519000 M⁻¹ s⁻¹ | 4.99 nM | 0.00512 s⁻¹ | 1.03e+06 M⁻¹ s⁻¹ | 8.75 nM | 0.00593 s⁻¹ | 678000 M⁻¹ s⁻¹ | 34F1.14/sp34.24 (bispecific antibody, human IgG1, kappa, lambda, L234A L235A, also called 34F1.14 x HzSP34.24) heavy 1: not shown light 1: DVVMTQSPLSLPVTLGQPASISCKSSLSLLDSEGKTYLNWFQQRPGQSPRPLISLVSKLDSGVPDRFSGSGSGTDFTLKISRVEAEDVGVYYCWQGTHFPLTFGGGTKVEIKRTVAAPSVFIFPPSDEQLKSGTASVVCLLNNFYPREAKVQWKVDNALQSGNSQESVTEQDSKDSTYSLSSTLTLSKADYEKHKVYACEVTHQGLSSPVTKSFNRGEC heavy 2: not shown light 2: QAVVTQEPSLTVSPGGTVTLTCRSSTGAVTTSNYANWVQQKPGQAPRGLIGGTNKRAPGVPARFSGSLLGDKAALTLLGAQPEDEAEYYCALWYSNLWVFGQGTKLTVLGQPKAAPSVTLFPPSSEELQANKATLVCLISDFYPGAVTVAWKADSSPVKAGVETTTPSKQSNNKYAASSYLSLTPEQWKSHRSYSCQVTHEGSTVEKTVAPTECS

More lines, now with the values behind:

Row | Binder | EC50 (read off the curve) [1] | EC50 (read off the curve) [2] | Kd [3] | koff [3] | kon [3] | Kd [4] | koff [4] | kon [4] | Kd [5] | koff [5] | kon [5]
3 | 38D9B3.11/sp34.87 (bispecific antibody, human IgG1, kappa, lambda, L234A L235A, 1+1 anti-CD79b x CD3 bispecific, IgG1 Fc with knob-in-hole and L234A/L235A; also called 38D9B3.11 x HzSP34.87) heavy 1: not shown light 1: EIVLTQSPATLSLSPGERATLSCKASQSVDHDVDSYMDWYQQKPGQAPRLLIYSASNLESGIPARFSGSGSGTDFTLTISSLEPEDFAVYYCQQINEYPYTFGGGTKVEIKRTVAAPSVFIFPPSDEQLKSGTASVVCLLNNFYPREAKVQWKVDNALQSGNSQESVTEQDSKDSTYSLSSTLTLSKADYEKHKVYACEVTHQGLSSPVTKSFNRGEC heavy 2: not shown light 2: QAVVTQEPSLTVSPGGTVTLTCRSSTGAVTTSNYANWVQQKPGQAPRGLIGGTNKRAPGVPARFSGSLLGDKAALTLLGAQPEDEAEYYCALWYSNLWVFGQGTKLTVLGQPKAAPSVTLFPPSSEELQANKATLVCLISDFYPGAVTVAWKADSSPVKAGVETTTPSKQSNNKYAASSYLSLTPEQWKSHRSYSCQVTHEGSTVEKTVAPTECS | ~5 nM | ~9 nM | 1.66 nM | 0.00031 s⁻¹ | 187000 M⁻¹ s⁻¹ | 119 nM | 0.0368 s⁻¹ | 310000 M⁻¹ s⁻¹ | 253 nM | 0.0275 s⁻¹ | 109000 M⁻¹ s⁻¹
4 | 34F1.14/sp34.87 (bispecific antibody, human IgG1, kappa, lambda, L234A L235A, also called 34F1.14 x HzSP34.87) heavy 1: not shown light 1: DVVMTQSPLSLPVTLGQPASISCKSSLSLLDSEGKTYLNWFQQRPGQSPRPLISLVSKLDSGVPDRFSGSGSGTDFTLKISRVEAEDVGVYYCWQGTHFPLTFGGGTKVEIKRTVAAPSVFIFPPSDEQLKSGTASVVCLLNNFYPREAKVQWKVDNALQSGNSQESVTEQDSKDSTYSLSSTLTLSKADYEKHKVYACEVTHQGLSSPVTKSFNRGEC heavy 2: not shown light 2: QAVVTQEPSLTVSPGGTVTLTCRSSTGAVTTSNYANWVQQKPGQAPRGLIGGTNKRAPGVPARFSGSLLGDKAALTLLGAQPEDEAEYYCALWYSNLWVFGQGTKLTVLGQPKAAPSVTLFPPSSEELQANKATLVCLISDFYPGAVTVAWKADSSPVKAGVETTTPSKQSNNKYAASSYLSLTPEQWKSHRSYSCQVTHEGSTVEKTVAPTECS | – | – | 7.03 nM | 0.00207 s⁻¹ | 295000 M⁻¹ s⁻¹ | 92 nM | 0.0315 s⁻¹ | 342000 M⁻¹ s⁻¹ | 180 nM | 0.032 s⁻¹ | 178000 M⁻¹ s⁻¹
